From the RNAGym collection of RNA variant scans (doi:10.1093/molbev/msab373)

B1: Azoarcus group I ribozyme (parent)
chain: GUGCCUUGCGCCGGGAAACCACGCAAGGGAUGGUGUCAAAUUCGGCGAAACCUAAGCGCCCGCCCGGGCGUAUGGCAACGCCGAGCCAAGCUUCGGCGCCUGCGCCGAUGAAGGUGUAGAGACUAGACGGCACCCACCUAAGGCAAACGCUAUGGUGAAGGCAUAGUCCAGGGAGUGGCGAAAGUCACACAAACCGG

Variants of: B1
Test: reverse-splicing fitness (ratio to wild type); higher = more active; in vitro selection; Mg2+ level not given
Outline: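 An in vitro group I ribozyme library with randomized positions was T7-transcribed and gel-purified. In triplicate, 10 pmol RNA in EPPS pH 7.5 was reacted with 50 pmoles of a 30-nt RNA substrate for 1 h at 37 °C across several added MgCl2 levels (1–48 mM), then stopped with EDTA. Products were reverse transcribed from a substrate-complementary primer, PCR-amplified and sequenced (HiSeq 4000). Fitness is a variant's read proportion after selection over that before, normalised to wild type.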

| Variant | reverse-splicing fitness |
| --- | --- |
| GUGCCUUGCGCCGGGAAACCACGCAAGGGAUGGUGUCAAAUUCGGCGAAACCUAAGCGCCCGCCCGGGCGUAUGGCAACGCCGAGCCAAGCUUCGGCGCCUGCGCCGAUGCAGGUGUAGGGACUAGACGGCACCCACCUAAGGCUAACGCUAUGGUGAAGGCAUAGUCAAGGGAGCGGCGAAAGUCACACAAACCGG [A111C A120G A145U C169A U176C] | 0.0182 |
| GUGCCUUGCGCCGGGAAACCACGCAAGGGAUGGUGUCAAAUUCGGCGAAACCUAAGCGCCCGCCCGGGCGUAUGGCAACGCCGAGCCAAGCUUCGGCGCCUGCGCCGAUGCAGGUGUAGGGACUAGACGGCACCCACCUAAGGCUAACGCUAUGGUGAAGGCAUAGUCAAGGGAGAGGCGAAAGUCACACAAACCGG [A111C A120G A145U C169A U176A] | 0.0166 |
| GUGCCUUGCGCCGGGAAACCACGCAAGGGAUGGUGUCAAAUUCGGCGAAACCUAAGCGCCCGCCCGGGCGUAUGGCAACGCCGAGCCAAGCUUCGGCGCCUGCGCCGAUGCAGGUGUAGGGACUAGACGGCACCCACCUAAGGCUAACGCUAUGGUGAAGGCAUAGUCAAGGGAGGGGCGAAAGUCACACAAACCGG [A111C A120G A145U C169A U176G] | 0.0051 |
| GUGCCUUGCGCCGGGAAACCACGCAAGGGAUGGUGUCAAAUUCGGCGAAACCUAAGCGCCCGCCCGGGCGUAUGGCAACGCCGAGCCAAGCUUCGGCGCCUGCGCCGAUGCAGGUGUAGGGACUAGACGGCACCCACCUAAGGCAAACGAUAUGGUGAAGGCAUAGUCGAGGGAGUGGCGAAAGUCACACAAACCGG [A111C A120G C150A C169G] | 0.0242 |
| GUGCCUUGCGCCGGGAAACCACGCAAGGGAUGGUGUCAAAUUCGGCGAAACCUAAGCGCCCGCCCGGGCGUAUGGCAACGCCGAGCCAAGCUUCGGCGCCUGCGCCGAUGCAGGUGUAGGGACUAGACGGCACCCACCUAAGGCAAACGAUAUGGUGAAGGCAUAGUCAAGGGAGUGGCGAAAGUCACACAAACCGG [A111C A120G C150A C169A] | 0.0171 |
| GUGCCUUGCGCCGGGAAACCACGCAAGGGAUGGUGUCAAAUUCGGCGAAACCUAAGCGCCCGCCCGGGCGUAUGGCAACGCCGAGCCAAGCUUCGGCGCCUGCGCCGAUGCAGGUGUAGGGACUAGACGGCACCCACCUAAGGCAAACGAUAUGGUGAAGGCAUAGUCUAGGGAGUGGCGAAAGUCACACAAACCGG [A111C A120G C150A C169U] | 0.0203 |
| GUGCCUUGCGCCGGGAAACCACGCAAGGGAUGGUGUCAAAUUCGGCGAAACCUAAGCGCCCGCCCGGGCGUAUGGCAACGCCGAGCCAAGCUUCGGCGCCUGCGCCGAUGCAGGUGUAGGGACUAGACGGCACCCACCUAAGGCAAACGAUAUGGUGAAGGCAUAGUCGAGGGAGCGGCGAAAGUCACACAAACCGG [A111C A120G C150A C169G U176C] | 0.0245 |
| GUGCCUUGCGCCGGGAAACCACGCAAGGGAUGGUGUCAAAUUCGGCGAAACCUAAGCGCCCGCCCGGGCGUAUGGCAACGCCGAGCCAAGCUUCGGCGCCUGCGCCGAUGCAGGUGUAGGGACUAGACGGCACCCACCUAAGGCAAACGAUAUGGUGAAGGCAUAGUCGAGGGAGAGGCGAAAGUCACACAAACCGG [A111C A120G C150A C169G U176A] | 0.0175 |
| GUGCCUUGCGCCGGGAAACCACGCAAGGGAUGGUGUCAAAUUCGGCGAAACCUAAGCGCCCGCCCGGGCGUAUGGCAACGCCGAGCCAAGCUUCGGCGCCUGCGCCGAUGCAGGUGUAGGGACUAGACGGCACCCACCUAAGGCAAACGAUAUGGUGAAGGCAUAGUCGAGGGAGGGGCGAAAGUCACACAAACCGG [A111C A120G C150A C169G U176G] | 0.00531 |
| GUGCCUUGCGCCGGGAAACCACGCAAGGGAUGGUGUCAAAUUCGGCGAAACCUAAGCGCCCGCCCGGGCGUAUGGCAACGCCGAGCCAAGCUUCGGCGCCUGCGCCGAUGCAGGUGUAGGGACUAGACGGCACCCACCUAAGGCUAACGCUAUGGUGAAGGCAUAGUCGAGGGAGGGGCGAAAGUCACACAAACCGG [A111C A120G A145U C169G U176G] | 0.00448 |
| GUGCCUUGCGCCGGGAAACCACGCAAGGGAUGGUGUCAAAUUCGGCGAAACCUAAGCGCCCGCCCGGGCGUAUGGCAACGCCGAGCCAAGCUUCGGCGCCUGCGCCGAUGCAGGUGUAGGGACUAGACGGCACCCACCUAAGGCUAACGCUAUGGUGAAGGCAUAGUCGAGGGAGAGGCGAAAGUCACACAAACCGG [A111C A120G A145U C169G U176A] | 0.0277 |
| GUGCCUUGCGCCGGGAAACCACGCAAGGGAUGGUGUCAAAUUCGGCGAAACCUAAGCGCCCGCCCGGGCGUAUGGCAACGCCGAGCCAAGCUUCGGCGCCUGCGCCGAUGCAGGUGUAGGGACUAGACGGCACCCACCUAAGGCUAACGCUAUGGUGAAGGCAUAGUCGAGGGAGCGGCGAAAGUCACACAAACCGG [A111C A120G A145U C169G U176C] | 0.0343 |
| GUGCCUUGCGCCGGGAAACCACGCAAGGGAUGGUGUCAAAUUCGGCGAAACCUAAGCGCCCGCCCGGGCGUAUGGCAACGCCGAGCCAAGCUUCGGCGCCUGCGCCGAUGCAGGUGUAGGGACUAGACGGCACCCACCUAAGGCUAACGCUAUGGUGAAGGCAUAGUCAAGGGAGUGGCGAAAGUCACACAAACCGG [A111C A120G A145U C169A] | 0.128 |
| GUGCCUUGCGCCGGGAAACCACGCAAGGGAUGGUGUCAAAUUCGGCGAAACCUAAGCGCCCGCCCGGGCGUAUGGCAACGCCGAGCCAAGCUUCGGCGCCUGCGCCGAUGCAGGUGUAGGGACUAGACGGCACCCACCUAAGGCUAACGCUAUGGUGAAGGCAUAGUCUAGGGAGUGGCGAAAGUCACACAAACCGG [A111C A120G A145U C169U] | 0.174 |
| GUGCCUUGCGCCGGGAAACCACGCAAGGGAUGGUGUCAAAUUCGGCGAAACCUAAGCGCCCGCCCGGGCGUAUGGCAACGCCGAGCCAAGCUUCGGCGCCUGCGCCGAUGCAGGUGUAGGGACUAGACGGCACCCACCUAAGGCUAACGCUAUGGUGAAGGCAUAGUCGAGGGAGUGGCGAAAGUCACACAAACCGG [A111C A120G A145U C169G] | 0.203 |
